We go through one substance from publication PMC5701160.

The target of this assay is PSI core complex (Haematococcus pluvialis (endogenous in strain K-0084)). Put plainly: estimate from pigment ratios (HPLC) of the isolated B5 fraction; from Chl a/b and Chl/Car ratios, assuming 3.4 Cars per Lhca subunit and 100 Chl a per PSI core complex.

With LHCI antenna proteins, the stoichiometry N (Lhca proteins per P700) is 5.
